Reference: US10047131B2, “Peptides and combination of peptides for use in immunotherapy against ovarian cancer and other cancers” (immatics biotechnologies GmbH, priority 2015, dated 2018)

Molecular target: HLA-A*02:01 (Homo sapiens, UniProt P04439, D140Y/D185E/D98H/E176V/E277Q/G131W/G231S/I119V/I121R/I166T/I218V/L300P/L318F/N151K/N90K/P208A/P217A/Q86G/Q94H/R138H/R169H/T345S)
Assay: MHC binding assay (UV-ligand exchange, ELISA of exchange yield)
Conditions: binding to HLA-A*02:01, UV-ligand exchange
Procedure, shortened: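 ELISA of β2m retained on streptavidin-captured, 100-fold diluted complexes (HRP anti-β2m, TMB, 450 nm) gives the yield. Complexes come from UV-triggered exchange of a photocleavable placeholder peptide for the candidate, which must bind to stop complex dissociation.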

Row | Peptide exchange (MHC class I binding score, peptide exchange yield) | Substance
1 | “++++” (≥75% = ++++) | 602 (YLLEQIKLIEV; listed as Homo sapiens) [compound 602]
2 | “++” (≥20% = ++) | 603 (FLIEPEHVNTV; listed as Homo sapiens) [compound 603]
3 | “+++” (≥50 = +++) | 604 (SILDRDDIFV; listed as Homo sapiens) [compound 604]
4 | “+++” (≥50 = +++) | 605 (KLYEAVPQL; listed as Homo sapiens) [compound 605]
5 | “+++” (≥50 = +++) | 606 (ALWETEVYI; listed as Homo sapiens) [compound 606]
6 | “+++” (≥50 = +++) | 607 (RLYSGISGLEL; listed as Homo sapiens) [compound 607]
7 | “+++” (≥50 = +++) | 608 (SLLSVSHAL; listed as Homo sapiens) [compound 608]
8 | “+++” (≥50 = +++) | 609 (ALWKQLLEL; listed as Homo sapiens) [compound 609]
9 | “+++” (≥50 = +++) | 610 (LLAPTPYIIGV; listed as Homo sapiens) [compound 610]
10 | “++++” (≥75% = ++++) | 611 (YLLDDGTLVV; listed as Homo sapiens) [compound 611]
11 | “+++” (≥50 = +++) | 612 (YLYNEGLSV; listed as Homo sapiens) [compound 612]
12 | “+++” (≥50 = +++) | 613 (RLLPPGAVVAV; listed as Homo sapiens) [compound 613]
13 | “+++” (≥50 = +++) | 614 (LLLPDQPPYHL; listed as Homo sapiens) [compound 614]
14 | “++” (≥20% = ++) | 615 (VLPPDTDPA; listed as Homo sapiens) [compound 615]
15 | “+++” (≥50 = +++) | 616 (VLIDEVESL; listed as Homo sapiens) [compound 616]
16 | “+++” (≥50 = +++) | 617 (ALMYESEKVGV; listed as Homo sapiens) [compound 617]
17 | “+++” (≥50 = +++) | 618 (VLFDSESIGIYV; listed as Homo sapiens) [compound 618]
18 | “+++” (≥50 = +++) | 619 (ALQDRVPLA; listed as Homo sapiens) [compound 619]
19 | “++++” (≥75% = ++++) | 620 (KLLNKIYEA; listed as Homo sapiens) [compound 620]
20 | “++++” (≥75% = ++++) | 621 (VLMDRLPSLL; listed as Homo sapiens) [compound 621]
21 | “+++” (≥50 = +++) | 622 (RLLGEEVVRVLQA; listed as Homo sapiens) [compound 622]
22 | “+++” (≥50 = +++) | 623 (YLVEDIQHI; listed as Homo sapiens) [compound 623]
23 | “+++” (≥50 = +++) | 635 (SLDSTLHAV; listed as Homo sapiens) [compound 635]
